Target: T1, Nuclear Respiratory Factor 1 (NRF1), Q16656
T1 chain: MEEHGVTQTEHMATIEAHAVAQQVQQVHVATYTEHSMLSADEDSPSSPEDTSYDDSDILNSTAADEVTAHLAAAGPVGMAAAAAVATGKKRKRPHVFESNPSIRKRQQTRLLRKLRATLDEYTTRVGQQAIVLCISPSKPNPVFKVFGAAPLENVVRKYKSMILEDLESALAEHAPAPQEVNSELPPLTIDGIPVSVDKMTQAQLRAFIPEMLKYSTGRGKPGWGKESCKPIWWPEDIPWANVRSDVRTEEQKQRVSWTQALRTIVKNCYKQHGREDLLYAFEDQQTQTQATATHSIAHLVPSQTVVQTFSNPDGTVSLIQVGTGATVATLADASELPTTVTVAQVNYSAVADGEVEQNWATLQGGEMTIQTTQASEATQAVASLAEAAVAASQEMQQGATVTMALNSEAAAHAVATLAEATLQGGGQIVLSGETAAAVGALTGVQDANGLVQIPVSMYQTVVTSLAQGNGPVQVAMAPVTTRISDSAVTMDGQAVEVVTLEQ

B1: endogenous SIRT7 (protein)
chain: MAAGGLSRSERKAAERVRRLREEQQRERLRQVSRILRKAAAERSAEEGRLLAESADLVTELQGRSRRREGLKRRQEEVCDDPEELRGKVRELASAVRNAKYLVVYTGAGISTAASIPDYRGPNGVWTLLQKGRSVSAADLSEAEPTLTHMSITRLHEQKLVQHVVSQNCDGLHLRSGLPRTAISELHGNMYIEVCTSCVPNREYVRVFDVTERTALHRHQTGRTCHKCGTQLRDTIVHFGERGTLGQPLNWEAATEAASRADTILCLGSSLKVLKKYPRLWCMTKPPSRRPKLYIVNLQWTPKDDWAALKLHGKCDDVMRLLMAELGLEIPAYSRWQDPIFSLATPLRAGEEGSHSRKSLCRSREEAPPGDRGAPLSSAPILGGWFGRGCTKRTKRKKVT
SIRT7 occupancy at gene promoters (ChIP-qPCR) after NRF1 siRNA: NRF1 knockdown (KD) using siRNA reduced SIRT7 occupancy at the promoters of mRPs and mTFs, but not RPS20

Reference: patent US20180051253
